In article PMC12098869, “An mRNA-display derived cyclic peptide scaffold reveals the substrate binding interactions of an N-terminal cysteine oxidase” (Nature Communications, 2025):
Numbering of substitutions follows the chain as printed. Names and notes keep the numbering of the source. Values joined by “and” are separate entries in the source; they are usually repeats but may differ in a detail not shown here. Equal entries are not always repeated. Where a SMILES comes first, the peptide text is derived from it. Bridges are numbered along the chain shown (N, C = ends). Where no end group is shown, it is not given here. [ ]: non-standard residue; d: D form.

Tests used:
ADO-Y87F = target: T1, ADO-Y87F (Homo sapiens, UniProt Q96SZ5, Y87F); test: SPR binding of substrate peptides to ADO variant
T1 construct: Full-length human ADO (Uniprot ID: Q96SZ5) was cloned; made in house; host or cells: E. coli Rosetta2(DE3)
Source text: (§1) Having verified the accuracy of the substrate analogue-bound crystal structures using MD simulations, key active site residues were mutated to assess their impact on binding and activity using SPR and LCMS. They were chosen based on their proximity to the substrate moieties and their conservation across species, including plants, where NCOs are called plant cysteine oxidases (PCOs; Fig. 5)[9],[10]. Two representative substrates, RGS5_2-15 and IL32_2-15 (a synthetic peptide corresponding to the methionine excised N-terminus of IL32, residues 2–15), were tested to compare interactions with different amino acid sequences.
(§2) SPR measurements were made using a Biacore T200 (Cytiva) instrument and data were analysed using the Biacore Insight Evaluation Software. Biotinylated-ADO was immobilised on a Biotin CAP chip (Cytiva) with a target density of ∼2500–3000 RU and peptide/protein substrates were injected over the chip. Experiments were conducted at 4 °C using both multi-cycle (fit using the equilibrium steady state affinity 1:1 binding model) and single-cycle kinetics mode (fit using a 1:1 binding model). A buffer comprising 20 mM HEPES pH 7.5, 500 mM NaCl, 10 mM DTT, and 0.1% (v/v) tween-20 was used as the running buffer at a flow rate of 50 μL/minute.
(§3) Supplementary Figure 20. SPR analysis of ADO variants with RGS5 peptide. (Left) Representative SPR sensorgram for the titration of RGS52-15 with amino acid substituted ADO. (Right) Fits of the equilibrium responses from the sensorgram in the left panels to a 1:1 binding model. The Kᴅ values are shown (Kᴅ given as the geometric mean of a minimum of three independent SPR measurements (n=3) with standard error). […] The […]
(§4) sensorgram is shown in red and the fit to the data is shown in black. The concentrations of RGS52-15 used in the titration are 25.6 nM, 64 nM, 160 nM, 400 nM, 1000 nM. The Kᴅ value is shown (Kᴅ given as the geometric mean of a minimum of three independent SPR measurements). Source data are provided as Source Data file.
(§5) (1 picture or pasted object on this page, not shown here)
(§6) Supplementary Figure 21. SPR analysis of ADO variants with IL32 peptide. (Left) Representative SPR sensorgram for the titration of IL322-15 with amino acid substituted ADO. (Right) Fits of the equilibrium responses from the sensorgram in the left […]
(§7) sensorgram is shown in red and the fit to the data is shown in black. The concentrations of IL322-15 used in the titration are 25.6 nM, 64 nM, 160 nM, 400 nM, 1000 nM. The Kᴅ value is shown (Kᴅ given as the geometric mean of a minimum of three independent

ADO-I109A [1] = target: T2, ADO-I109A (Homo sapiens, UniProt Q96SZ5, I109A); test: SPR binding of substrate peptides to ADO variant
T2 construct: Full-length human ADO (Uniprot ID: Q96SZ5) was cloned; made in house; host or cells: E. coli Rosetta2(DE3)
Source text: as §1, §2, §3, §4, §5, §6, §7

ADO-D206A = test: SPR binding of substrate peptides to ADO variant; set-up: species or system human
Source text: as §1, §2
Supplementary Figure 20. SPR analysis of ADO variants with RGS5 peptide. […]

[2] = target: 2-aminoethanethiol dioxygenase (ADO), full-length human, N-terminally His-tagged and biotinylated (pQE80L-Navi-ADO) (human) (UniProt Q96SZ5); test: SPR; biotinylated ADO or ADO mutant immobilised on a Biotin CAP chip (~2500-3000 RU), substrate peptide injected; Biacore T200, 4 °C; 20 mM HEPES pH 7.5, 500 mM NaCl, 10 mM DTT, 0.1% tween-20; 50 µL/minute; multi-cycle or single-cycle mode not given; each cell is one of three independent measurements
[3] = target: ADO-D206N, N-terminally His-tagged and biotinylated (human) (UniProt Q96SZ5); test: as above
ADO-Y212A = target: T3, ADO-Y212A (Homo sapiens, UniProt Q96SZ5, Y212A); test: SPR binding of substrate peptides to ADO variant
T3 construct: Full-length human ADO (Uniprot ID: Q96SZ5) was cloned; made in house; host or cells: E. coli Rosetta2(DE3)
Source text: as §1, §2, §3, §4, §5, §6, §7

ADO-D206N = target: T4, ADO-D206N (Homo sapiens, UniProt Q96SZ5, D206N); test: SPR binding of substrate peptides (native and oxidised) to ADO variant; conditions: up to 100 μM
T4 construct: Full-length human ADO (Uniprot ID: Q96SZ5) was cloned; made in house; host or cells: E. coli Rosetta2(DE3)
T4 sequence (Q96SZ5 1-270 D206N): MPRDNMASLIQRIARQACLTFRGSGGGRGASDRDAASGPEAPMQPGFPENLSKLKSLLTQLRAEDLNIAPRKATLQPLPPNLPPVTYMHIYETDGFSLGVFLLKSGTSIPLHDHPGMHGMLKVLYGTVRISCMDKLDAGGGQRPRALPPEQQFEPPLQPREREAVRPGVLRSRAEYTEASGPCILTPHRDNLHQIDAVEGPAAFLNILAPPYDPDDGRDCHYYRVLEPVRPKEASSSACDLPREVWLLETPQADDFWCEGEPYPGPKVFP
Source text: as §1
ADO cannot bind oxidised peptide or protein sequences (i.e. those bearing Nt-Cys sulfinic acid/sulfinate)[36]. To explore whether ADO-D206 plays a role in product release through protonation or charge repulsion, the binding of oxidised RGS5_2-15 and IL32_2-15 to ADO-D206N was monitored by SPR (Supplementary Fig. 22). […] Given its position in the active site (and the fact that many ADO-D206 variants bind substrate), this implies that ADO-D206 contributes to ADO activity through an interaction with O2 during turnover.
SPR measurements were made using a Biacore T200 (Cytiva) instrument and data were analysed using the Biacore Insight Evaluation Software. […]

ADO-I109A [4] = target: T5, ADO-I109A (human, UniProt Q96SZ5 1-270, I109A, biotin); test: SPR; biotinylated ADO (wild type or mutant) immobilised on a Biotin CAP chip, substrate peptides injected; 4 °C; 20 mM HEPES pH 7.5, 500 mM NaCl, 10 mM DTT, 0.1% tween-20; multi-cycle or single-cycle mode not given; conditions: both partners purified
T5 construct: 2-aminoethanethiol dioxygenase (ADO), human, UniProt Q96SZ5, full length; Made by site-directed mutagenesis of the SPR construct; source: E. coli Rosetta2(DE3), purified (Ni-NTA, SEC); not shown: biotinylation tag (from the vector pQE80L-Navi), N-terminal, kept
T5 sequence (looked up): T4 sequence (Q96SZ5 1-270 D206N) with I109A, N206D

[5] = target: 2-aminoethanethiol dioxygenase (ADO), wild type, biotinylated (pQE80L-Navi-ADO) (human); test: SPR; single-cycle kinetics (SCK), 1:1 binding model; biotinylated ADO or variant immobilised on a Biotin CAP chip, peptide injected at 25.6, 64, 160, 400, 1000 nM; 4 °C; 20 mM HEPES pH 7.5, 500 mM NaCl, 10 mM DTT, 0.1% (v/v) tween-20; 50 μL/minute
[6] = target: T6, 2-aminoethanethiol dioxygenase (ADO), full-length human, N-terminally His-tagged and biotinylated … (human, UniProt Q96SZ5 1-270, biotin (biotinylated during expression, 0.2 mM biotin added)); test: SPR; single-cycle kinetics (1:1 binding model); biotinylated ADO immobilised on a Biotin CAP chip (~2500-3000 RU), cyclic peptide injected; Biacore T200, 4 °C; 20 mM HEPES pH 7.5, 500 mM NaCl, 10 mM DTT, 0.1% tween-20; 50 µL/minute; each cell is one of three independent measurements; conditions: both partners purified
T6 construct: 2-aminoethanethiol dioxygenase (ADO), human, UniProt Q96SZ5, full length; Immobilised through its biotin on a Biotin CAP chip for SPR; also called wild type ADO; Biotinylated-ADO; source: E. coli Rosetta2(DE3), purified (Ni-NTA, SEC); not shown: biotinylation tag (from the vector pQE80L-Navi), N-terminal, kept
T6 sequence (looked up): T4 sequence (Q96SZ5 1-270 D206N) with N206D

T2 sequence (Q96SZ5 whole entry I109A): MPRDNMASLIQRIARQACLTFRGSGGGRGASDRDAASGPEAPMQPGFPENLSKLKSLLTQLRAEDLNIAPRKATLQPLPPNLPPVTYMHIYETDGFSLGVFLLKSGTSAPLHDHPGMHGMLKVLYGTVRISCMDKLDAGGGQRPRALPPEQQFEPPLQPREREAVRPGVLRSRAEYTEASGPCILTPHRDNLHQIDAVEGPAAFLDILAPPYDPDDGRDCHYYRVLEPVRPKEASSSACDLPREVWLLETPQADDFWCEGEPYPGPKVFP
T3 sequence (Q96SZ5 whole entry Y212A): as the sequence (Q96SZ5 whole entry I109A) above, with A109I, Y212A counted along it
T1 sequence (Q96SZ5 whole entry Y87F): as the sequence (Q96SZ5 whole entry I109A) above, with Y87F, A109I counted along it

## CC(C)C[C@H](NC(=O)CNC(=O)[C@H](CCCCN)NC(=O)[C@@H](N)CS)C(=O)N[C@@H](C)C(=O)N[C@@H](C)C(=O)N[C@@H](CC(C)C)C(=O)N1CCC[C@H]1C(=O)N[C@@H](Cc1c[nH]cn1)C(=O)N[C@@H](CO)C(=O)N[C@@H](CS)C(=O)N[C@@H](CC(C)C)C(=O)N[C@@H](CCC(=O)O)C(=O)N[C@@H](CCCNC(=N)N)C(N)=O [14-mer RGS5] (H-CKGLAALPHSCLER-NH2; C-terminus assumed)
ADO-Y87F; replicate 1
  KD: 339 nM
ADO-Y87F; replicate 3
  KD: 339 nM
ADO-I109A [1]
  fold increase in KD relative to wild type ADO: 2 fold
ADO-D206A
  binding to ADO-D206A (in words): no binding

## IL32(2-15), synthetic peptide corresponding to the methionine excised N-terminus of IL32, residues 2-15 (from UniProt P24001 2-15)
[2]
  Kd: 372 nM and 449 nM and 573 nM
[3]
  Kd: 68.4 nM and 73.3 nM and 67.5 nM

## CSCC[C@H](NC(=O)[C@H](CC(=O)O)NC(=O)[C@H](CC(=O)O)NC(=O)[C@H](CO)NC(=O)[C@H](CC(C)C)NC(=O)[C@@H](NC(=O)[C@H](CCCCN)NC(=O)[C@@H]1CCCN1C(=O)[C@H](Cc1ccccc1)NC(=O)[C@@H](N)CS)C(C)C)C(=O)N[C@@H](CCCCN)C(=O)N[C@@H](CCCCN)C(=O)N[C@@H](CC(C)C)C(=O)N[C@@H](CCCCN)C(N)=O [14-mer IL32] (H-CFPKVLSDDMKKLK-NH2; C-terminus assumed)
ADO-Y212A; replicate 2
  KD: 24700 nM
ADO-Y212A; replicate 3
  KD: 24700 nM
ADO-I109A [1]
  fold increase in KD relative to wild type ADO: 35 fold
ADO-D206A
  binding to ADO-D206A (in words): no binding

## RGS5(2-15), synthetic peptide corresponding to the methionine excised N-terminus of RGS5, residues 2 to 15 (from UniProt O15539 2-15)
[2]
  Kd: 609 nM and 637 nM and 675 nM
[3]
  Kd: 149 nM and 155 nM and 152 nM

## oxidised RGS5_2-15: RGS5_2-15 bearing Nt-Cys sulfinic acid/sulfinate, obtained through pre-incubation with ADO ([Cys sulfinic acid]KGLAALPHSCLER)
ADO-D206N
  binding of oxidised peptide to ADO-D206N (in words): No association was observed

## oxidised IL32_2-15: IL32_2-15 bearing Nt-Cys sulfinic acid/sulfinate, obtained through pre-incubation with ADO ([Cys sulfinic acid]FPKVLSDDMKKLK)
ADO-D206N
  binding of oxidised peptide to ADO-D206N (in words): No association was observed

B1: IL32_(2-15), synthetic peptide corresponding to the methionine excised N-terminus of IL32, residues 2-15 (peptide, UniProt P24001 2-15, looked up)
peptide: CFPKVLSDDMKKLK
notes: interleukin 32 (IL32), residues 2-15 (methionine excised N-terminus); peptide synthesis is in the supplementary methods; source: synthetic peptide
ADO-I109A [4]
  fold increase in KD relative to wild type ADO: 35 fold

B2: RGS5_(2-15), synthetic peptide corresponding to the methionine excised N-terminus of RGS5, residues 2 to 15 (peptide, UniProt O15539 2-15, looked up)
peptide: CKGLAALPHSCLER
notes: RGS5, human, residues 2 to 15 (methionine excised N-terminus); peptide synthesis is in the supplementary methods; source: synthetic peptide
ADO-I109A [4]
  fold increase in KD relative to wild type ADO: 2 fold

B3: CP6-L8K-Cys (peptide)
peptide: {CH2CO}-YIVKTFWK(Cys)GSHRQC
modifications: thioether N-14
notes: the substitution L8K is to be applied, Cys on the sidechain amine of K8; Branched peptide: the Cys is not in the main chain; source: synthetic peptide
[5]
  Kd: 13 nM
[6]
  Kd: 11 nM and 13.1 nM and 13.7 nM

B4: CP6-L8K-Ser (peptide)
peptide: {CH2CO}-YIVKTFWK(Ser)GSHRQC
modifications: thioether N-14
notes: the substitution L8K is to be applied, Ser on the sidechain amine of K8; Branched peptide: the Ser is not in the main chain; also called CP-L8K-Ser; source: synthetic peptide
[5]
  Kd: 21 nM
[6]
  Kd: 17.2 nM and 20.6 nM and 26.8 nM
